Measured values as given in US20220267421A1 (INVOX PHARMA, published 2022).
Substitutions are numbered along the chain they refer to. Blank lines part the entries; values can stand above or below the binder they belong to.

Columns and labels:
[1] = biological target: T1, cell surface human mesothelin (MSLN) (human, UniProt Q13421 296-598); test: flow cytometry, NCI-H226 cells
T1 construct: whole, on cells; also called cell surface MSLN
Description: (§1) Cells were centrifuged at 1200 rpm for 3 min and resuspended in ice cold FACS buffer made up of DPBS (Life Technologies, 14190169) and 1% BSA (Sigma-Aldrich, A7906) at 2×10⁶ cells/ml and 50 μl per well was seeded in a 96-well V-bottom plate (Costar, 3894). All mAbs tested were diluted in FACS buffer in 120 μl at a concentration range of 0.01-200 nM (4-fold dilutions). The NCI-H226 cells were then centrifuged, supernatant removed and cells resuspended in 100 μl of each mAb dilution and incubated at 4° C. for 45 min. Cells were washed twice by centrifugation with 150 μl FACS buffer, resuspended in 100 μl containing goat anti-human IgG (γ-chain specific) F(ab′)2 fragment-R-Phycoerythrin antibody (Sigma, P8047) diluted 1:1000 in FACS buffer and incubated at 4° C. for 45 min. The cells were washed once with 150 μl FACS buffer and then with 150 μl DPBS, resuspended in 150 μl DPBS containing DAPI (Biotium, 40043) at 1:10.000 and read on the BDCantoll or iQue (Intellicyt). Data was analysed using FlowJo v10 to determine the signal geometric mean for PE for live cells in each well.
(§2) Cell binding assays using OVCAR-3 cells were performed similarly to the assays described in section 2.4. The effect of the presence of soluble MSLN was tested by pre-incubating the antibodies in the presence or absence of soluble MSLN before mixing with cells and determining if the pre-incubation affected binding to MSLN on the cell surface. […] 60 μl from each well was then added to either FACS buffer alone or to FACS buffer containing 60 μl of 40 nM recombinant hMSLN (R&D systems, 3265-MS-050) (to give a final concentration of 20 nM hMSLN) and pre-incubated at room temperature for 1 hour before 100 μl was added to the cells. Bound antibody was detected using goat anti-human anti-Fcγ Alexa-Fluor 488 (Jackson Immunoresearch, 109-546-098).
(§3) The method used was exactly as described in section 3.1.4.

human MSLN-His-Avi [2] = biological target: T2, human MSLN-His-Avi (human, UniProt Q13421 296-598, single biotin (BirA) in the biotinylated form); test: SPR (Biacore), MSLN immobilised, mAb^2 injected
T2 construct: Monomeric, made in HEK293-6E; Used both immobilised and in solution; also called hMSLN-His-Avi; biotinylated hMSLN-His-Avi
Description: (§4) Human MSLN-His-Avi was immobilised on flow cell 2 on a CM5 Series S BIAcore sensor chip (GE Healthcare, BR100530) using an amine coupling kit (GE Healthcare, BR10050) to approximately 200 response units (RU). Flow cell 1 was left blank for subtraction. HEK293-6E supernatants or purified proteins were adjusted with HBS-EP+(GE Healthcare) to approximately 50 nM anti-MSLN mAb per sample. Samples were injected over flow cell 1 and 2 for 2.5 min at 30 μl/min and then allowed to dissociate in HBS-EP buffer for 2.5 min. Regeneration was achieved by injecting 10 mM glycine pH 1.5 (GE Healthcare, BR100354) for 30 seconds at a rate of 30 μl/min. Subtracted data (flow cell 2−flow cell 1) were analysed using BIAevaluation 3.2 Software (GE Healthcare).
(§5) Binding of the selected anti-MSLN clones in mAb² format, to recombinant human and cyno MSLN-His-Avi antigen was measured by SPR using a Biacore T200 processing unit (GE Healthcare). As previously described, it was desirable to bind more strongly to immobilised antigen than to soluble antigen. To assess the binding properties of the clones, binding kinetics to immobilised MSLN antigen were determined as described in section 2.1.2 and compared to the kinetics obtained when MSLN antigens in solution bound to captured clones.

human MSLN-His-Avi [3] = biological target: T2, human MSLN-His-Avi; test: ratio of the two SPR KD
Description: as §4, §5
(§6) For the capture experiments, clones in mAb² format were captured using a BIAcore sensor series S chip Protein G (GE Healthcare, 29179315). mAb² diluted in HBS-EP buffer (GE Healthcare, BR100188) containing 900 mM […] at 1 μg/ml, were injected individually on flow cell 2, 3 and 4 at 30 μl/min to achieve a response of approximately 100 RU. G1-AA/HeID1.3 was captured on flow cell 1. The recombinant human and cyno MSLN-His-Avi (section 1.1), diluted in HBS-EP buffer containing 900 mM […], were injected on flow cell 1, 2, 3 or 4 as appropriate at a concentration range of 1000 nM to 0.051 nM with 3-fold dilutions for 5 minutes at 70 μl/min and then allowed to dissociate in buffer for 5 minutes. Regeneration was achieved by injecting 10 mM glycine pH1.5 (GE Healthcare, BR100354) and surfactant P20 (GE Healthcare, BR-1000-54) for 20 seconds at a rate of 30 μl/min.

human MSLN-His-Avi [4] = biological target: T2, human MSLN-His-Avi; test: SPR (Biacore), mAb^2 captured on Protein G, MSLN in solution injected
Description: as §5
as §6, with “μl/min. Subtracted data (flow cell 2−flow cell 1, flow cell 3−flow cell 1, or flow cell 4−flow cell 1) were analysed using BIAevaluation 3.2 Software (GE Healthcare) to identify binding using the model 1:1 binding, local Rmax and with refractive index (RI) constant 0.” for “μl/min.”

cynomolgus MSLN-His-Avi = biological target: T3, cynomolgus MSLN-His-Avi (cynomolgus, single biotin (BirA) in the biotinylated form); test: as above
T3 construct: Monomeric, made in HEK293-6E; also called cMSLN-His-Avi; cyno MSLN-His-Avi
T3 chain: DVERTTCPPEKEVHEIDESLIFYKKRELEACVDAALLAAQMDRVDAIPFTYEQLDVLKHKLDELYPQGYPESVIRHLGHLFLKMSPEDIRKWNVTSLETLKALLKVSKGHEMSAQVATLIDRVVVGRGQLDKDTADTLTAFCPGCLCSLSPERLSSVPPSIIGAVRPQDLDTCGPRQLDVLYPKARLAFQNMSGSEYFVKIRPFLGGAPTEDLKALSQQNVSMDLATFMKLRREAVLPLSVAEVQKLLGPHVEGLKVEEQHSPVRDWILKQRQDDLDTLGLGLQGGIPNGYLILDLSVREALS
Description: as §5
as §6, with “μl/min. Subtracted data (flow cell 2−flow cell 1, flow cell 3−flow cell 1, or flow cell 4−flow cell 1) were analysed using BIAevaluation 3.2 Software (GE Healthcare) to identify binding using the model 1:1 binding, local Rmax and with refractive index (RI) constant 0.” for “μl/min.”

[5] = biological target: T1, cell surface human mesothelin (MSLN); test: flow cytometry, NCI-H226 cells + 20 nM soluble MSLN
Description: as §1, §2, §3

T1 sequence (Q13421 other isoform, or with tags, fused parts or gaps limits assumed): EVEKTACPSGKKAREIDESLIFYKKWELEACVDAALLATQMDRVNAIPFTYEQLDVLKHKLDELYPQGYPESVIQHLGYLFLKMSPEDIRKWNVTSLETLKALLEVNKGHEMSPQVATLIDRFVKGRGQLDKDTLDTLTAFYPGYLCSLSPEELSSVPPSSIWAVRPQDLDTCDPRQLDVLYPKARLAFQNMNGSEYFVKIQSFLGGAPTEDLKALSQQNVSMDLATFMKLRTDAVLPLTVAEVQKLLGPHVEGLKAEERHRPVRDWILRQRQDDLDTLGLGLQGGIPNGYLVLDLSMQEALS
T2 sequence (Q13421 other isoform, or with tags, fused parts or gaps): as the sequence (Q13421 other isoform, or with tags, fused parts or gaps limits assumed) above

EC50 [1]: 2.72 nM
Emax (MFI) [1]: 740000 MFI
Kd (human MSLN-His-Avi [2]): 1.1 nM
Ratio of KD in solution/immobilised for human MSLN-His-Avi (human MSLN-His-Avi [3]): 580
Kd (human MSLN-His-Avi [4]): 615 nM
Kd (cynomolgus MSLN-His-Avi): > 1000 nM
EC50 [5]: 3.97 nM
Emax (MFI) [5]: 745000 MFI
B2: FS22-053-008-AA/FS28-091 mAb^2 (bispecific antibody, human IgG1, kappa, L234A L235A, V domains shown)
VH: EVQLLESGGGLVQPGGSLRLSCAASGFTFTNYAMSWVRQAPGKGLEWVSSIKPYDGNTYYADSVKGRFTISRDNSKNTLYLQMNSLRAEDTAVYYCARNRWVFDYWGQGTLVTVSS
VL: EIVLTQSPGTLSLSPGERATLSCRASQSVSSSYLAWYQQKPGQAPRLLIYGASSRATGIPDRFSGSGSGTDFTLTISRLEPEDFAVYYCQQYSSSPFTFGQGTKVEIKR
notes: also called FS28-091 (in mAb^2 format)

EC50 [1]: 6.98 nM
Emax (MFI) [1]: 637000 MFI
EC50 [5]: 4.6 nM
Emax (MFI) [5]: 494000 MFI
B7: FS22-053-008-AA/FS28-256-018 mAb^2 (bispecific antibody, human IgG1, kappa, L234A L235A, V domains shown)
VH: EVQLLESGGGLVQPGGSLRLSCAASGFTFTQTYMSWVRQAPGKGLEWVSNISPTYSTTNYADSVKGRFTISRDNSKNTLYLQMNSLRAEDTAVYYCARYNAYQIGLDYWGQGTLVTVSS
VL: EIVLTQSPGTLSLSPGERATLSCRASQSVSSSYLAWYQQKPGQAPRLLIYGASSRATGIPDRFSGSGSGTDFTLTISRLEPEDFAVYYCQQSYYYPITFGQGTKVEIKR

EC50 [1]: 3.11 nM
Emax (MFI) [1]: 771000 MFI
EC50 [5]: 2.72 nM
Emax (MFI) [5]: 616000 MFI
B8: FS22-053-008-AA/FS28-256-014 mAb^2 (bispecific antibody, human IgG1, kappa, L234A L235A, V domains shown)
VH: B7 VH with Q31D, Q103A, I104A
VL: B7 VL

EC50 [1]: 5.3 nM
Emax (MFI) [1]: 760000 MFI
EC50 [5]: 3.91 nM
Emax (MFI) [5]: 654000 MFI
B9: FS22-053-008-AA/FS28-256-005 mAb^2 (bispecific antibody, human IgG1, kappa, L234A L235A, V domains shown)
VH: B7 VH with Q31E, A101S, I104G
VL: B7 VL with S92A, Y93L, Y94G, I97H

EC50 [1]: 4.98 nM
Emax (MFI) [1]: 703000 MFI
EC50 [5]: 5.36 nM
Emax (MFI) [5]: 608000 MFI
B10: FS22-053-008-AA/FS28-256-001 mAb^2 (bispecific antibody, human IgG1, kappa, L234A L235A, V domains shown)
VH: B7 VH with Q31E, A101S, I104G
VL: B7 VL with S92H, Y93N, Y94Q, I97N

Further lines, the binder ahead of its results:

B1: FS22-053-008-AA/FS28-026 mAb^2 (bispecific antibody, human IgG1, kappa, L234A L235A, V domains shown)
VH: B2 VH with T30S, S35T, K52T, D55Y, G56S, N57K, Y59D, R100W, W101Y, V102R
VL: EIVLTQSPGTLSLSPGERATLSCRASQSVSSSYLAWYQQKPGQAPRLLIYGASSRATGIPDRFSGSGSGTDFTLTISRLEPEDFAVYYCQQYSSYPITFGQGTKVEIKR
notes: also called FS28-026 (in mAb^2 format)
EC50 [1]: 1.91 nM
Emax (MFI) [1]: 730000 MFI
Kd (human MSLN-His-Avi [2]): 0.14 nM
Ratio of KD in solution/immobilised for human MSLN-His-Avi (human MSLN-His-Avi [3]): 5000
Kd (human MSLN-His-Avi [4]): 700 nM
Kd (cynomolgus MSLN-His-Avi): 886 nM
EC50 [5]: 2.65 nM
Emax (MFI) [5]: 702000 MFI

B3: FS22-053-008-AA/FS28-024-051 mAb^2 (bispecific antibody, human IgG1, kappa, L234A L235A, V domains shown)
VH: EVQLLESGGGLVQPGGSLRLSCAASGFTLSYSSMSWVRQAPGKGLEWVSFITPSTGYTHYADSVKGRFTISRDNSKNTLYLQMNSLRAEDTAVYYCARRALIFDYWGQGTLVTVSS
VL: B7 VL with S92A, Y93S, Y94S, I97L
notes: also called FS28-024-51
EC50 [1]: 0.78 nM
Emax (MFI) [1]: 801000 MFI
Kd (human MSLN-His-Avi [2]): 0.31 nM
Ratio of KD in solution/immobilised for human MSLN-His-Avi (human MSLN-His-Avi [3]): 154
Kd (human MSLN-His-Avi [4]): 47.5 nM
Kd (cynomolgus MSLN-His-Avi): 148 nM
EC50 [5]: 7.47 nM
Emax (MFI) [5]: 1.1e+06 MFI

B4: FS22-053-008-AA/FS28-256 (bispecific antibody, human IgG1, kappa, L234A L235A, V domains shown)
VH: B7 VH with Q31N, A101S, I104G
VL: B7 VL
EC50 [1]: 15.8 nM
Emax (MFI) [1]: 276000 MFI
Kd (human MSLN-His-Avi [2]): 23.7 nM
Ratio of KD in solution/immobilised for human MSLN-His-Avi (human MSLN-His-Avi [3]): 37.5
Kd (human MSLN-His-Avi [4]): 889 nM
Kd (cynomolgus MSLN-His-Avi): 738 nM
EC50 [5]: 39.4 nM
Emax (MFI) [5]: 351000 MFI

B5: FS22-053-008-AA/FS28-024-053 mAb^2 (bispecific antibody, human IgG1, kappa, L234A L235A, V domains shown)
VH: B3 VH with I102V
VL: B7 VL with S92A, Y93S, Y94S, I97L
notes: also called FS28-024-53
EC50 [1]: 1.19 nM
Emax (MFI) [1]: 914000 MFI
Kd (human MSLN-His-Avi [2]): 0.89 nM
Ratio of KD in solution/immobilised for human MSLN-His-Avi (human MSLN-His-Avi [3]): 55.3
Kd (human MSLN-His-Avi [4]): 49.2 nM
Kd (cynomolgus MSLN-His-Avi): 78.3 nM
EC50 [5]: 7.52 nM
Emax (MFI) [5]: 965000 MFI

B6: FS22-053-008-AA/FS28-024-060 mAb^2 (bispecific antibody, human IgG1, kappa, L234A L235A, V domains shown)
VH: B3 VH with I102W
VL: B7 VL with S92A, Y93S, Y94S, I97L
EC50 [1]: 1.46 nM
Emax (MFI) [1]: 1.01e+06 MFI
Kd (human MSLN-His-Avi [2]): 0.07 nM
Ratio of KD in solution/immobilised for human MSLN-His-Avi (human MSLN-His-Avi [3]): 78.6
Kd (human MSLN-His-Avi [4]): 5.2 nM
Kd (cynomolgus MSLN-His-Avi): 266 nM
EC50 [5]: 25.7 nM
Emax (MFI) [5]: 1.23e+06 MFI

B11: FS22-053-008-AA/FS28-024-052 mAb^2 (bispecific antibody, human IgG1, kappa, L234A L235A, V domains shown)
VH: B3 VH with I102L
VL: B7 VL with S92A, Y93S, Y94S, I97L
notes: also called FS28-024-52
EC50 [1]: 1.32 nM
Emax (MFI) [1]: 958000 MFI
Kd (human MSLN-His-Avi [2]): 0.36 nM
Ratio of KD in solution/immobilised for human MSLN-His-Avi (human MSLN-His-Avi [3]): 92.3
Kd (human MSLN-His-Avi [4]): 33.1 nM
Kd (cynomolgus MSLN-His-Avi): 185 nM
EC50 [5]: 4.28 nM
Emax (MFI) [5]: 986000 MFI
